Patent US20160136234A1

Experiments:
Assay in all cases: cell-based or functional assay
[1] = biological target: GSK3α (h) (human) (UniProt P49840)
[2] = biological target: SAPK2a(T106M) (h) (human) (UniProt Q16539)
[3] = biological target: Pim-3 (h) (human) (UniProt Q86V86)
[4] = biological target: ErbB4 (h) (human) (UniProt Q15303)
[5] = biological target: Abl (H396P) (h) (human) (UniProt P00519)
[6] = biological target: T1, TSSK1 (h) (human) (UniProt Q9BXA7)
T1 sequence (looked up): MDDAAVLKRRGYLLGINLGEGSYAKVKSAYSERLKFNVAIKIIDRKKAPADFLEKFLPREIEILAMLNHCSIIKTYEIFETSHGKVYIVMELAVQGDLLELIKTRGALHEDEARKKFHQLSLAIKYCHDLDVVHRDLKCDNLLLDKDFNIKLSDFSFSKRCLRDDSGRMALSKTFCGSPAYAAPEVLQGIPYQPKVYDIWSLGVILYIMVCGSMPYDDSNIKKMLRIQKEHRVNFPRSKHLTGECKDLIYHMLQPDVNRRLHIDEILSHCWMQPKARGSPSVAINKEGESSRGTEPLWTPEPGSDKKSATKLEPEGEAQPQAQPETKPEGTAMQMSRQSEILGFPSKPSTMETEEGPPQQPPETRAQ

[7] = biological target: Rsk3 (h) (human) (UniProt Q15349)
[8] = biological target: CK2 (h) (human) (UniProt P68400)
[9] = biological target: p70S6K (h) (human) (UniProt P23443)
[10] = biological target: Mitogen-Activated Protein Kinase-Activated Protein Kinase 3 (human) (UniProt Q16644)
[11] = biological target: ZAP-70 (h) (human) (UniProt P43403)
[12] = biological target: PKCγ (h) (human) (UniProt P05129)
[13] = biological target: EphA4 (h) (human) (UniProt P54764)
[14] = biological target: IGF-1R (h), activated (human) (UniProt P08069)
[15] = biological target: T2, TAO1 (h) (human) (UniProt Q7L7X3)
T2 sequence (looked up): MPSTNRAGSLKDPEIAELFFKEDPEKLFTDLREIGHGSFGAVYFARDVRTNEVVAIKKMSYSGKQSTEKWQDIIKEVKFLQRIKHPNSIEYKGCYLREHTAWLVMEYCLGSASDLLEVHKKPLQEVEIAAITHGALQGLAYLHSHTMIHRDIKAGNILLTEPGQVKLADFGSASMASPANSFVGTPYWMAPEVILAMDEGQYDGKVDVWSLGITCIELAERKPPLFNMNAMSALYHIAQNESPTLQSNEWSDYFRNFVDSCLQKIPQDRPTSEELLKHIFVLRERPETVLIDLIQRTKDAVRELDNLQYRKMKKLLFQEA

[16] = biological target: IRR (h) (human) (UniProt P14616)
[17] = biological target: T3, PKCζ (h) (human) (UniProt Q05513)
T3 sequence (looked up): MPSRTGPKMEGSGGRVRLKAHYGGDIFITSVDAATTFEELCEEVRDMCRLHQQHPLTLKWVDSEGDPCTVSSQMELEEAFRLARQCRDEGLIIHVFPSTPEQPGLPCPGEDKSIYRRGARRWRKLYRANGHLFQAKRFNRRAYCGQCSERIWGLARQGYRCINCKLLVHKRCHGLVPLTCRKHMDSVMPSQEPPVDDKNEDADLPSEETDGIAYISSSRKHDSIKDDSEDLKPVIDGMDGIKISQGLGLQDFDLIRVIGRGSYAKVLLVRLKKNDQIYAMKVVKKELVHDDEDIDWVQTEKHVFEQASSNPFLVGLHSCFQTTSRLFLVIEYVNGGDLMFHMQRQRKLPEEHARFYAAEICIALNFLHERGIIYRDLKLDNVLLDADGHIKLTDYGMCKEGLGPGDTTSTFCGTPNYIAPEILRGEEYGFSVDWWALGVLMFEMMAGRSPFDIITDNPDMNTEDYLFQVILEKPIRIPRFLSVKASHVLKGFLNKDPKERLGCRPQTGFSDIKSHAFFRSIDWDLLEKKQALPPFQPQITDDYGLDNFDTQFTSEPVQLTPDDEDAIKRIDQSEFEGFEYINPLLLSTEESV

[18] = biological target: CDK5/p35 (h) (human) (UniProt Q00535)
[19] = biological target: AMPKα2 (h) (human) (UniProt P54646)
[20] = biological target: Abl(Y253F) (h) (human) (UniProt P00519)
[21] = biological target: CK1γ3 (h) (human) (UniProt Q9Y6M4)
[22] = biological target: BDNF/NT-3 growth factors receptor (human) (UniProt Q16620)
[23] = biological target: T4, NEK3 (h) (human) (UniProt P51956)
T4 sequence (looked up): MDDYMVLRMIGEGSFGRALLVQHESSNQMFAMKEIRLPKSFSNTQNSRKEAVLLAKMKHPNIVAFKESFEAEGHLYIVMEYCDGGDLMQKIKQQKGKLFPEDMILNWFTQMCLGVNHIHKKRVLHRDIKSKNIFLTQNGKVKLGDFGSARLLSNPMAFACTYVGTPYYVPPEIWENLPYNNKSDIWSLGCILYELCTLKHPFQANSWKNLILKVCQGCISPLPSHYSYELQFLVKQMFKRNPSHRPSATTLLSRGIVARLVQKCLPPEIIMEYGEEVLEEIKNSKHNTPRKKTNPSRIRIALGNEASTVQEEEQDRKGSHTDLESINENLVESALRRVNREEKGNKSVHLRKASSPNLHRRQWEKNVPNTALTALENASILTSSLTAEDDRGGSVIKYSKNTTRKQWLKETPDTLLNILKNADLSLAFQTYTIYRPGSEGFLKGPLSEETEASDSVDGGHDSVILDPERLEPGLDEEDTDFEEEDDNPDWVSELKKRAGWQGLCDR

[24] = biological target: ROCK-II (h) (human) (UniProt O75116)
[25] = biological target: NEK7 (h) (human) (UniProt Q8TDX7)

Sequence of SAPK2a(T106M) (h) (human) (Q16539 whole entry T106M): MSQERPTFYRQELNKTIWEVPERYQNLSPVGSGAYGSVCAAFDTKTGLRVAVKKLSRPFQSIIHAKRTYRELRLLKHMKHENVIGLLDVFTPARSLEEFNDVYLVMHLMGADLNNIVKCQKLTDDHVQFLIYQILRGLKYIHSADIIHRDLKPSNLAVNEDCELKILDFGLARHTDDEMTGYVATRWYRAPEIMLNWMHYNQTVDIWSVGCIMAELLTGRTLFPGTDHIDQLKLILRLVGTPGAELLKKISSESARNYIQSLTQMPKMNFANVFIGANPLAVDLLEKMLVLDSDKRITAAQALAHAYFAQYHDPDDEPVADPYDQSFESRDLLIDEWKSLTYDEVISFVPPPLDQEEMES
Sequence of Abl(Y253F) (h) (human) (P00519 27-1130 Y253F limits assumed): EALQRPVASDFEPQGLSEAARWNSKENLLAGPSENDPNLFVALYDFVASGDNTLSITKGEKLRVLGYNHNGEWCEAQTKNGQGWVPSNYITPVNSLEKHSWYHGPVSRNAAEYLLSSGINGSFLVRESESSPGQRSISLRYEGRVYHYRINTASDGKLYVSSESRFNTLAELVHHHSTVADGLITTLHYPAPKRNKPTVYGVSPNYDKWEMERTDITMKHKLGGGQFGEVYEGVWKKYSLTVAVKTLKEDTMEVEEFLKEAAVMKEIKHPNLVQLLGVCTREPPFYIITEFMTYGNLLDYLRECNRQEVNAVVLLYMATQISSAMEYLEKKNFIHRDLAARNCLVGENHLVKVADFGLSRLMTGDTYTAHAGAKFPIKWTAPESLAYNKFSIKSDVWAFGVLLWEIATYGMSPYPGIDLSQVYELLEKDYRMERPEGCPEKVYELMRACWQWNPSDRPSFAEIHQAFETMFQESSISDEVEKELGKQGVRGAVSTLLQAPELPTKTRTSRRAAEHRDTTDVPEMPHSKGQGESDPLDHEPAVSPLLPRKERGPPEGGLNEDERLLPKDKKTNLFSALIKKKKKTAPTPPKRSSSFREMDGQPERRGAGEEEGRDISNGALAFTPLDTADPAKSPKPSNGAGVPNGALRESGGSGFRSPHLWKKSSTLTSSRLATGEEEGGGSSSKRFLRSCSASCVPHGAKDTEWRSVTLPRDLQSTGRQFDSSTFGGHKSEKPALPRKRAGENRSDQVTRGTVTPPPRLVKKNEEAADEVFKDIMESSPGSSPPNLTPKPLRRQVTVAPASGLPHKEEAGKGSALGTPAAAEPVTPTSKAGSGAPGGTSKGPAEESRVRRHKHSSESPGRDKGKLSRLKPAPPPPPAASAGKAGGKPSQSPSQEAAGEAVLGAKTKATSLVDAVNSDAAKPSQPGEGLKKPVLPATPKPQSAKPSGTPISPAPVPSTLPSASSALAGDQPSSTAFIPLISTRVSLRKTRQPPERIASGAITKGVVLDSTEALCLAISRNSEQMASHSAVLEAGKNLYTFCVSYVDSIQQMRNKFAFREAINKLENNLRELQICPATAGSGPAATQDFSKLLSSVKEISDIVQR
Sequence of IRR (h) (human) (P14616 944-1297 limits assumed): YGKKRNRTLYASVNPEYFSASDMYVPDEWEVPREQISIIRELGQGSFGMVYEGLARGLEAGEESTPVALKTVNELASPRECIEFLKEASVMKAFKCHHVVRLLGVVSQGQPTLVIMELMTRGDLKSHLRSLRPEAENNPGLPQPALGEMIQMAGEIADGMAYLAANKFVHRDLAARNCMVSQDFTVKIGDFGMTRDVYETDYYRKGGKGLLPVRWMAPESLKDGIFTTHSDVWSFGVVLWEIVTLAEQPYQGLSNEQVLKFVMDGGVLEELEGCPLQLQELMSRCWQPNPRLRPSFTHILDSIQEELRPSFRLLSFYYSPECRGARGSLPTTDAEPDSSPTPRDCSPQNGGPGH
Sequence of Rsk3 (h) (human) (Q15349 whole entry): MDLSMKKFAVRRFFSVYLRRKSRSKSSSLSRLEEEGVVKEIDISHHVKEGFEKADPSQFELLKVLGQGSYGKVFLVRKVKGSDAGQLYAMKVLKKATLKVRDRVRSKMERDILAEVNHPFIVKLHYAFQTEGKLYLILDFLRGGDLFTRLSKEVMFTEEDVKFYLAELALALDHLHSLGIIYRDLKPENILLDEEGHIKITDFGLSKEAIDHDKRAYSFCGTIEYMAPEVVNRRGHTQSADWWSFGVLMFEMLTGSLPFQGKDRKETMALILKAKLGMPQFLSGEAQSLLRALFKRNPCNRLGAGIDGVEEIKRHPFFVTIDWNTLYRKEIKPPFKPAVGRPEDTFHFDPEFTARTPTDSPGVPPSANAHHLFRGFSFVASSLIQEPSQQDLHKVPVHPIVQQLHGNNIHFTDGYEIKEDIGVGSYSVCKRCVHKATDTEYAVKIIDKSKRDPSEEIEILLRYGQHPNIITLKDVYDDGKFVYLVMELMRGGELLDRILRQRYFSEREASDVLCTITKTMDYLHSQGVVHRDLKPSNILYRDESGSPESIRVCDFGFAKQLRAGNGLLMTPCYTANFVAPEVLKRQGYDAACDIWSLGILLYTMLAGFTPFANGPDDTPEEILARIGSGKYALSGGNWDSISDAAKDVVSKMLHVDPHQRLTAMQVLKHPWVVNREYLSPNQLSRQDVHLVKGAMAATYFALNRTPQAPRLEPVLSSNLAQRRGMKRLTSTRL
Sequence of IGF-1R (h), activated (human) (P08069 959-1367 limits assumed): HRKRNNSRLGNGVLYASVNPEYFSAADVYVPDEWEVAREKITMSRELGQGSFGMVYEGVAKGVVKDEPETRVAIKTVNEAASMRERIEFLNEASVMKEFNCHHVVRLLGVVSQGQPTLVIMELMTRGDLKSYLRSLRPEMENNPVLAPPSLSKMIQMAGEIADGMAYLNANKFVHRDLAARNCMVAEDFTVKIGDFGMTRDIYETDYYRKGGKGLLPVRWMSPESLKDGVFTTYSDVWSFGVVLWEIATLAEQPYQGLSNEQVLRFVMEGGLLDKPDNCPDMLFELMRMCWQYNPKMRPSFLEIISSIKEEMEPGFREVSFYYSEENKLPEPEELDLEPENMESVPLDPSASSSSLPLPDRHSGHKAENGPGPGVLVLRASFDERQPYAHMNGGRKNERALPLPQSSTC
Sequence of ErbB4 (h) (human) (Q15303 706-991 limits assumed): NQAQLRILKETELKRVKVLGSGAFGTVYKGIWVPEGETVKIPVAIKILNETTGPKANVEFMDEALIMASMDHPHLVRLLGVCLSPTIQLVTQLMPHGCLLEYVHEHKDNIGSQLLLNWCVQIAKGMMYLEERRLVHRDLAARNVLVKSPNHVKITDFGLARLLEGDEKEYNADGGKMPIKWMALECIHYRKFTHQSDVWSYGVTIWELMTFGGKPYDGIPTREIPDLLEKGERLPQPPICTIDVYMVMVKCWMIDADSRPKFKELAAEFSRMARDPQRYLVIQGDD
Sequence of ZAP-70 (h) (human) (P43403 whole entry): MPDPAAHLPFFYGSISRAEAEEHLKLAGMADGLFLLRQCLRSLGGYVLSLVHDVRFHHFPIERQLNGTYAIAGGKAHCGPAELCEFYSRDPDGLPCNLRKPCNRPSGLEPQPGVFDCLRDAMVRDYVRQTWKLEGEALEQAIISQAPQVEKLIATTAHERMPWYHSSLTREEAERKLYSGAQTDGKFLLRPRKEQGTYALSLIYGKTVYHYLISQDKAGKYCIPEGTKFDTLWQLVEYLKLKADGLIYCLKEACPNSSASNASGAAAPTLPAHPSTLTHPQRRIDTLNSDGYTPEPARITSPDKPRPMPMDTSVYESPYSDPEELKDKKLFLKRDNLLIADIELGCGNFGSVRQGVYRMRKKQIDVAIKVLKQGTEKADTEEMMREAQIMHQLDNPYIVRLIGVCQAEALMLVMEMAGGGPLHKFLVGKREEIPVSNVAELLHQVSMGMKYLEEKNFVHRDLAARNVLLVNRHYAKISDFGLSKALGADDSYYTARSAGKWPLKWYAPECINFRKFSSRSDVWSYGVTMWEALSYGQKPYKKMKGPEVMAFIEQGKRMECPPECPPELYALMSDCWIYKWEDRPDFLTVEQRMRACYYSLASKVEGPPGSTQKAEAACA
Sequence of Abl (H396P) (h) (human) (P00519 27-1130 H396P limits assumed): as the sequence (P00519 27-1130 Y253F limits assumed) above, with F227Y, H370P counted along it
Sequence of EphA4 (h) (human) (P54764 570-986 limits assumed): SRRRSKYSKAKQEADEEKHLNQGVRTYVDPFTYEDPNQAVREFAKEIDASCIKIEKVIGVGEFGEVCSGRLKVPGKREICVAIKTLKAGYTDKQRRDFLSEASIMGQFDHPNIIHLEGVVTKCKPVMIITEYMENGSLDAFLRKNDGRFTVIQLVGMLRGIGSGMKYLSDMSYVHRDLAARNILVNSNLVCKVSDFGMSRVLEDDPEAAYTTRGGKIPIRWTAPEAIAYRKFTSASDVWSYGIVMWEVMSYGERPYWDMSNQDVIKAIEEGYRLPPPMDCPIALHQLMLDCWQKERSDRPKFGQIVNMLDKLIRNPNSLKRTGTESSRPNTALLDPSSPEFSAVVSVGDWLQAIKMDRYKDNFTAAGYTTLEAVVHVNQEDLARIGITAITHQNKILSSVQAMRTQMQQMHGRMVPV

For MMI-0300 (peptide), the % activity at 100 µM [1] was 157%, the % activity at 100 µM [2] was 97% and the % activity at 100 µM [3] was 80%. It also gave a % activity at 100 µM [4] of 40%, a % activity at 100 µM [5] of 101% and a % activity at 100 µM [6] of 79%. It also gave a % activity at 100 µM [7] of 76%, a % activity at 100 µM [8] of 90% and a % activity at 100 µM [9] of 35%. The % activity at 100 µM [10] was 3%, the % activity at 100 µM [11] was 75% and the % activity at 100 µM [12] was 89%. For the same substance, the % activity at 100 µM [13] was 88%, the % activity at 100 µM [14] was 80% and the % activity at 100 µM [15] was 82%. It also gave a % activity at 100 µM [16] of 8%, a % activity at 100 µM [17] of 81% and a % activity at 100 µM [18] of 79%. For the same substance, the % activity at 100 µM [19] was 54%, the % activity at 100 µM [20] was 86% and the % activity at 100 µM [21] was 125%. It also gave a % activity at 100 µM [22] of 5%, a % activity at 100 µM [23] of 92% and a % activity at 100 µM [24] of 74%. The % activity at 100 µM [25] was 84%.
